Data: patent US20190241659A1

How the values were obtained:
[1] = target: human PD-L1 on the cell surface (PD-L1 transfected HEK293, ES2, CHO PD-L1, engineered CHO cells) (human) (UniProt Q9NZQ7); test: flow cytometry on engineered CHO cells; four-parameter sigmoidal fit, ECf
[2] = target: human OX40 and human PD-L1 expressed together on engineered CHO cells (human) (UniProt P43489); test: flow cytometry on engineered CHO cells, AF647 anti-human IgG; apparent KD, one site specific binding fit
[3] = target: human PD-L1 on the cell surface (PD-L1 transfected HEK293, ES2, CHO PD-L1, engineered CHO cells) (human) (UniProt Q9NZQ7); test: as above
[4] = target: human PD-L1 on the cell surface (PD-L1 transfected HEK293, ES2, CHO PD-L1, engineered CHO cells) (human) (UniProt Q9NZQ7); test: flow cytometry on engineered CHO cells; four-parameter sigmoidal fit, 50% occupancy

human PD-L1 on the cell surface (PD-L1 transfected HEK293, ES2, CHO PD-L1, engineered CHO cells) (human), sequence (Q9NZQ7 19-290, change not shown): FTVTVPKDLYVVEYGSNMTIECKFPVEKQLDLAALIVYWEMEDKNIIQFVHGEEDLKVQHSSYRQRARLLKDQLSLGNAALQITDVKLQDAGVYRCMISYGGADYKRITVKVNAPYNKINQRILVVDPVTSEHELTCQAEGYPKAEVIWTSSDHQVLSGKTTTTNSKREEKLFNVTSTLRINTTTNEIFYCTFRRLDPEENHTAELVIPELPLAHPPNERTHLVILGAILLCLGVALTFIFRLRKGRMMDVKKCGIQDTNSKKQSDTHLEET

- concentration for 20% occupancy (EC20) [1]: 0.022 nM
- concentration for 90% occupancy (EC90) [1]: 0.79 nM
- Kd [2]: 0.27 nM
- Kd [3]: 0.088 nM
- EC50 [4]: 0.088 nM
Substance: MEDI5615 (PD-L1/OX40L BFP2 bispecific molecule, IgG4P)
